Measurements from article PMC7788595.

Molecular target: sfGFP^204SCO (Aequorea victoria) [GFP: P42212]
Test: FRET or BRET; steady state emission of the covalently SPAAC-linked GFVen^204 dimer, excitation at 450 nm; relative efficiency from donor and acceptor intensities (Equation 3) after deconvolution

## Venus^204azF (from UniProt P42212 2-238) (natural protein)
  FRET efficiency allowing for variation in quantum yield: 85 to 91%
  relative FRET efficiency: 87%
